Assay results as given in patent publication US8304236B2, “Modified biotin-binding protein” (Japan Tobacco Inc., priority 2008, dated 2012).
Where a chain is given by its changes, count along the chain named. Names and notes keep the numbering of the source. Values joined by “and” are separate entries in the source; they are usually repeats but may differ in a detail not shown here. Equal entries are not always repeated.

B1: TM2: wild type tamavidin 2, biotin-binding protein from Pleurotus cornucopiae, amino acid sequence SEQ ID NO: 2 (protein, listed as Pleurotus cornucopiae)
chain: MSDVQSSLTGTWYNELNSKMELTANKDGTLTGKYLSKVGDVYVPYPLSGRYNLQPPAGQGVALGWAVSWENSKIHSATTWSGQFFSESSPVILTQWLLSSSTARGDVWESTLVGNDSFTKTAPTEQQIAHAQLHCRAPRLK
B2: TM2 D40NR104EK141E: TM2 mutant having mutation of D40N and R104EK141E; SEQ ID NO: 24 (protein)
chain: B1 chain with D40N, R104E, K141E
modifications: Synthetic TM2 D40NR104EK141E

Tests used:
[1] = Isoelectric focusing electrophoresis (pI observed); type: physicochemical; settings: pH 3 to 10 gel
Method: The isoelectric point of each low-pI TM2 was measured by isoelectric focusing electrophoresis using an XCell SureLock Mini-Cell (Invitrogen). In accordance with the instruction, each low-pI TM2 (500 ng) and an IEF sample buffer (pH 3 to 10 (2×), Invitrogen) were mixed and were added to a polyacrylamide gel (pH 3 to 10, IEF Gel, Invitrogen) at a pH ranging from 3 to 10, followed by electrophoresis at a variable voltage of 100 V for 1 hour, 200 V for 1 hour, and 500 V for 45 minutes in this order.
After the electrophoresis, the gel was shaken in a blotting buffer (0.7% acetic acid) for 10 minutes and then was transferred onto a PVDF membrane at 10 V for 1 hour using an XCell ll Blot Module (Invitrogen). The PVDF membrane was subjected to reaction with anti-TM2 rabbit antibody (PCT/W2006/326260) serving as a primary antibody and with alkaline phosphate-labeled anti-rabbit IgG antibody (BIO-RAD) serving as a secondary antibody, followed by detection of bands with Alkaline Phosphatase Substrate Kit II
The isoelectric point of the high-affinity TM2 was measured by isoelectric focusing electrophoresis using an XCell SureLock Mini-Cell (Invitrogen). […] The electric point of TM2 D40N having replacement of the […] amino acid was higher than that of the wild type TM2 also in the isoelectric focusing electrophoresis.
The isoelectric point of HALU TM2 was measured by isoelectric focusing electrophoresis using an XCell SureLock Mini-Cell (Invitrogen). In accordance with the instruction, bands of each HALU TM2 (4 μg) were detected by CBB staining. […] The observed isoelectric point of TM2 D40N was 9.7, and was reduced to 8.9 after introduction of mutation of R104E and was reduced to 7.3 to 7.5 after further introduction of mutation of K141E.

[2] = tested on: human serum protein; assay: Non-specific adsorption of low-pI TM2 to human serum protein-immobilized magnetic beads; type: binding; settings: wild type TM2 = 100
Method: In this embodiment, non-specific binding to human serum was investigated as non-specific adsorption of low-pI TM2 to serum protein-immobilized magnetic beads. Specifically, in order to investigate the non-specific binding of low-pI TM2, the amount of low-pI TM2 adsorbed to magnetic beads to which human serum protein was covalently bonded was measured. TM2 K26A, TM2 K73Q, TM2 R104E, TM2 K141E, and TM2 R104EK141E, which were highly expressed in Escherichia coli, were used as the low-pI TM2 to be investigated.
Human serum protein and magnetic beads were bound to each other as follows. Magnetic beads having surfaces coated with carboxyl groups (Dynabeads M-270 Carboxylic Acid, Dynal, 210 μL) were washed with 0.01 N sodium hydroxide (210 μL) for 10 minutes and then with ultrapure water (210 μL) for 10 minutes three times. To the washed magnetic beads, 1-ethyl-3-(3-dimethylaminopropyl)carbodiimide hydrochloride (EDC, PIERCE) dissolved in cooled ultrapure water was added into a final concentration of 0.2 M, and the mixture was shaken at room temperature for 30 minutes. Then, the magnetic beads were washed with cooled ultrapure water (210 μL) and then with 50 mM MES buffer (pH 5.0, 210 μL).
To the magnetic beads, 1 mg/mL human serum protein (CHEMICON, 210 μL) dialyzed with 50 mM MES buffer (pH 5.0) was added. The mixture was shaken at room temperature for 30 minutes to covalently bind the human serum protein to the magnetic beads. The magnetic beads were collected with a magnet to remove the supernatant. The unreacted active groups on the beads were eliminated with 50 mM tris buffer (pH 7.0, 210 μL), and then the magnetic beads were blocked with a PBS buffer (420 μL) containing 0.5% BSA and 0.1% Tween 20. The magnetic beads were suspended in a PBS buffer (210 μL) to obtain human serum protein-immobilized magnetic beads.
The magnetic beads (7 μL) and 0.56 μg/mL of each low-pI TM2 (100 μL) were mixed for reaction at room temperature for 1 hour. The magnetic beads were collected with a magnetic, and the supernatant was removed. After washing with 20 mM potassium phosphate buffer (500 μL) containing 500 mM sodium chloride, the magnetic beads were mixed with 20 μL of 2×SDS sample buffer (250 mM Tris-HCl, pH 6.8, 20% 2-mercaptoethanol, 20% SDS, 20% glycerol), followed by heating at 95° C. for 20 minutes to dissociate the low-pI TM2 from the magnetic beads.
This sample was subjected to SDS-PAGE and then western blotting analysis to determine the amount of the low-pI TM2. Anti-tamavidin 2 rabbit antibody and alkaline phosphatase-labeled anti-rabbit IgG goat antibody were used as the primary antibody and the secondary antibody, respectively. The bands were detected with Alkaline Phosphatase Substrate Kit II <VECTOR Black> (VECTRO) and were quantified with Las-3000 (FUJIFILM).

[3] = Heat stability of protein structure (soluble protein after heating, SDS-PAGE); type: physicochemical; settings: for Thermal stability (temp. at which 50% of protein was lost): heated for 20 minutes
Method: 3-8) Heat Stability of HALU TM2 Protein Structure Each of 0.2 μg/μL TM2 mutant solutions (10 μL (2 μg)) was heated at room temperature, 50, 60, 70, 80, 90, or 99° C. for 20 minutes. Then, the solution was centrifuged at 15000 rpm for 10 minutes, and the soluble protein in the supernatant was suspended in the same volume of 2×SDS sample buffer (250 mM Tris-HCl, pH 6.8, 20% 2-mercaptoethanol, 20% SDS, 20% glycerol). The suspension was heated at 95° C. for 10 minutes, followed by SDS-PAGE. The protein bands were detected by CBB staining A standard curve was prepared using a quantitative marker (LMW ELECTROPHORESIS CALIBRATION KIT; Pharmacia Biotech) with Las-3000 (FUJIFILM) to quantify the protein bands.

Row | Molecule | pI observed [1] | pI observed ([1]; listed as TM2WT) | pI observed ([1]; listed as wild type TM2) | Non-specific binding of serum protein (%) [2] | Thermal stability (temp. at which 50% of protein was lost) [3] | Thermal stability (temp. at which 50% of protein was lost) ([3]; listed as TM2WT) | protein remained after heating ([3]; heated at 99° C. for 20 minutes)
1 | B1 | 8.5 to 8.8 | 8.5 to 8.8 | 8.2 to 8.6 and 8.5 to 8.8 | 100% | 87.5 °C | 86 °C | 
2 | B2 | 7.3 to 7.5 |  |  |  | 99 °C or |  | 78%
